Assay results reported in article PMC3325269, “Non-Agonistic Bivalent Antibodies That Promote c-MET Degradation and Inhibit Tumor Growth and Others Specific for Tumor Related c-MET” (PLoS ONE, 2012).

What was measured:
[1] = biological target: T1, c-MET extracellular domain (Homo sapiens, UniProt P08581); test: SPR; BIAcore; c-MET extracellular domain immobilized, different concentrations of purified LMH antibodies (intact IgG); settings: both partners purified
T1 construct: c-MET extracellular domain; also called immobilized c-MET extracellular domain
T1 sequence (P08581 25-932): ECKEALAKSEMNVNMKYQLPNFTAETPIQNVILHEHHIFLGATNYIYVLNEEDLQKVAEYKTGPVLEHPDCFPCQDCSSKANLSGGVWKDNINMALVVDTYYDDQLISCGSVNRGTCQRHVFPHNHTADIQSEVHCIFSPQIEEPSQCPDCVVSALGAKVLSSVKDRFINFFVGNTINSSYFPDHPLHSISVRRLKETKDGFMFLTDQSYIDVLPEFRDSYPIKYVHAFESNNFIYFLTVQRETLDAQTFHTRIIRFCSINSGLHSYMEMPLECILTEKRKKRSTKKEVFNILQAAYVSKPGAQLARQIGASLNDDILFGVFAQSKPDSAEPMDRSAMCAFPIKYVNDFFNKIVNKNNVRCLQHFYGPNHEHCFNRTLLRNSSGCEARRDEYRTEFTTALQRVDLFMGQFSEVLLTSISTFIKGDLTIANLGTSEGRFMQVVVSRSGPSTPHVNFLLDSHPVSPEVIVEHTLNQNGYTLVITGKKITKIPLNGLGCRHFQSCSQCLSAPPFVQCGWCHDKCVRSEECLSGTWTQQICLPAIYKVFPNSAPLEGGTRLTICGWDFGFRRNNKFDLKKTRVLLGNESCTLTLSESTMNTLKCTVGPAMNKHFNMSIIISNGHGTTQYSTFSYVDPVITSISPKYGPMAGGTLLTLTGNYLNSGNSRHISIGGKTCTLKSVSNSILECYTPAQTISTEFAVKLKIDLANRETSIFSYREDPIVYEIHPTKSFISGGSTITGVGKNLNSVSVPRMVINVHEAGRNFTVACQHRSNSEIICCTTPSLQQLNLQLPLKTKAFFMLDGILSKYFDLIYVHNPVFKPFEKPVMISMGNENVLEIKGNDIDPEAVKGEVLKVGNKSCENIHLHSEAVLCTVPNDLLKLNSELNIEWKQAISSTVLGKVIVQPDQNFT

[2] = biological target: T2, c-MET on the surface of A549 lung cancer cells (Homo sapiens (A549), UniProt P08581); test: flow cytometry on cells; A549 cells, 10 µg/ml of each LMH antibody in 1% HSA/PBS, 1 h at 4°C; anti-mouse IgG-PE secondary; settings: one partner purified
T2 construct: c-MET, the receptor for hepatocyte growth factor/scatter factor, as expressed on cells; also called surface c-MET; c-MET receptor; source: endogenous, on A549 cells (U87MG cells in one down-regulation assay)
T2 sequence (P08581 25-1390): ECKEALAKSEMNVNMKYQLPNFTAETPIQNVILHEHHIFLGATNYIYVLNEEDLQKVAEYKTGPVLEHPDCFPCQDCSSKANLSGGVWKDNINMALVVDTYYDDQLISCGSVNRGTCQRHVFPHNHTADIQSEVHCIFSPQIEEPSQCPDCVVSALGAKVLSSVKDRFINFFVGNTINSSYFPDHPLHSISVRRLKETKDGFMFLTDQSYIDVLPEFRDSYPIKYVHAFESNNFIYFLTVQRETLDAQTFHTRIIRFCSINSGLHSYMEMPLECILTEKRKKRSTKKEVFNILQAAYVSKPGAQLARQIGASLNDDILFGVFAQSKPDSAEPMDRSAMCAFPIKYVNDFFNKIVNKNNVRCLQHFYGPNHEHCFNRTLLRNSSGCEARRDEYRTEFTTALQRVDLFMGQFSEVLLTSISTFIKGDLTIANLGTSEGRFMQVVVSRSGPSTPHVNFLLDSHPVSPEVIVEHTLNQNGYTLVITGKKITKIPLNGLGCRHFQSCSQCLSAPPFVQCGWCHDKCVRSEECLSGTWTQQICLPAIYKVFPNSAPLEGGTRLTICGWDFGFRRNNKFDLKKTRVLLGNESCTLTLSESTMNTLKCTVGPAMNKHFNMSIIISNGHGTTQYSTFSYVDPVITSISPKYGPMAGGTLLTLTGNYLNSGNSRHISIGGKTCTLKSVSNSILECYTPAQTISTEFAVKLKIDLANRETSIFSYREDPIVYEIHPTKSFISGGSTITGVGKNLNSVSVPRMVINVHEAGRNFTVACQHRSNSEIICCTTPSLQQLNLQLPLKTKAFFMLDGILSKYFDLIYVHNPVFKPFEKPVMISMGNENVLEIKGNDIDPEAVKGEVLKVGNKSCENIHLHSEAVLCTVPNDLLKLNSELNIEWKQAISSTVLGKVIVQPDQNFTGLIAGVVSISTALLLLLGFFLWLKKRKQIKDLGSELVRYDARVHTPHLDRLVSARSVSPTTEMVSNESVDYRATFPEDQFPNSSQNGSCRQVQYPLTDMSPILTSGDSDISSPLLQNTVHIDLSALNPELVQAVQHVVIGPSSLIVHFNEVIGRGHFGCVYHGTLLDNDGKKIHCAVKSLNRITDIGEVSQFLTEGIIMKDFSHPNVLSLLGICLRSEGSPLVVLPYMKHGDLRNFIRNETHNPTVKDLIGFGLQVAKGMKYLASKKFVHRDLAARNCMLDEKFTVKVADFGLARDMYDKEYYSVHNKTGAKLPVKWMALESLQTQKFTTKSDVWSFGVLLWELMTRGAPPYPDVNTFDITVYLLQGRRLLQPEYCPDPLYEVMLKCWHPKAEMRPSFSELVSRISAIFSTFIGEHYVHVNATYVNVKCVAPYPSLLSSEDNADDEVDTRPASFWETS

[3] = biological target: T3, mature c-MET (disulphide-linked α/β heterodimer) (Homo sapiens (A549), UniProt P08581); test: co-IP; immunoprecipitation of endogenous c-MET from A549 lysates (Triton X-100 lysis buffer) with the LMH antibody; membranes blotted with mAb 25H2; settings: one partner purified
T3 construct: c-MET α-chain, extracellular 50 kDa product of furin cleavage of the precursor; c-MET β-chain, extracellular/intracellular 145 kDa product of furin cleavage of the precursor, contains the TK domain; Detected in the immunoprecipitates by the 145 kDa β-chain band (mAb 25H2); also called mature receptor; source: endogenous, A549 lysate

| Kd [1] | binding result [2] | binding result [3] | Binder |
| --- | --- | --- | --- |
| 2.6 nM | – | – | LMH 87 (antibody, V domains shown, VH domain; heavy chain constant region of a mouse IgG; VL (Vk) domain; light chain constant region of a mouse antibody (the methods call the variable segment Vk); Intact bivalent mouse monoclonal antibody; also called LMH 87 antibody; mAb LMH 87; source: clonal supernatants in the screening ELISA; copies: 2 + 2) VH: QVQLQQSGPELVKSGASVKMSCKASGNTLKDDHVHWVKQRPGQGLEWIGWIYPGGGRTRYNEKFKGKTTLTADKPSSTVNMLLSSLTSEDSAIYFCTNLVFDVWGAGTTVTVSS VL: DIVMTQAAPSVPVTPGESVSISCRSSKSLLHSNGNTYLYWFLQRPGQSPQVLIYRMSNLASGVPDRFSGSGSGTAFTLRIRRVEAEDVGVYYCMQNLEYPFTFGGGTKLEIK |
| – | binds | binds | LMH 85 (antibody, V domains shown, VH domain; heavy chain constant region of a mouse IgG; VL domain; light chain constant region of a mouse antibody; Intact bivalent mouse monoclonal antibody, agonist of c-MET; also called LMH 85 antibody; mAb LMH 85; source: clonal supernatants in the screening ELISA; copies: 2 + 2) VH: QVQLQQSGAELAKPGASVKMSCKASGYTFIIYWIHWIKQRPGQGLEWIGYINPSNDYTEYNQKFKDKATLTADKSSNTAFMQLSSLTSEDSAVYYCARDSYDYDDGAYAMDYWGQGTSVTVSS VL: QIVLSQSPAILSASPGEKVTMTCRASSGVNYMHWYQQKPGSSPKPWIYATSNLASGVPARFSGSGSGTSYSLTISRVEAEDAATYYCQQWISHPFTFGSGTKLEIK |
